Experiments:
Assay in all cases: ProtoArray, GST-treated control array;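 note: human protein microarray (about 9500 recombinant proteins) incubated overnight with GST alone plus SAM cofactor as the negative control for G9a SET domain methylation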
[1] = molecular target: T1, SMYD5-SMYD family member 5 (SMYD5) (human, UniProt Q6GMV2 1-418)
T1 sequence (looked up): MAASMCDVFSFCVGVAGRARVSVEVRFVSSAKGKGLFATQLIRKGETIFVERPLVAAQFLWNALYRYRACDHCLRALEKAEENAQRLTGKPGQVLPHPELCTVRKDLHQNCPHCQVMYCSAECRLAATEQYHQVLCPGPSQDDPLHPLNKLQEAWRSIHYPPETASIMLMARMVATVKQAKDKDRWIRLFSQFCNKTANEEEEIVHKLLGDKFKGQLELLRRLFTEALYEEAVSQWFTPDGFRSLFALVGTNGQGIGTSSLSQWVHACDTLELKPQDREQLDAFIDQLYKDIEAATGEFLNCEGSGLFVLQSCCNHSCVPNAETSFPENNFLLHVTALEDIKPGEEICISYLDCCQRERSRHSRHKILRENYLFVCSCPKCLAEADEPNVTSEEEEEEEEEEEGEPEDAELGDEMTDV

[2] = molecular target: T2, SMYD3-SET and MYND domain containing 3 (SMYD3) (human, UniProt Q9H7B4 1-428, limits assumed)
T2 sequence (looked up): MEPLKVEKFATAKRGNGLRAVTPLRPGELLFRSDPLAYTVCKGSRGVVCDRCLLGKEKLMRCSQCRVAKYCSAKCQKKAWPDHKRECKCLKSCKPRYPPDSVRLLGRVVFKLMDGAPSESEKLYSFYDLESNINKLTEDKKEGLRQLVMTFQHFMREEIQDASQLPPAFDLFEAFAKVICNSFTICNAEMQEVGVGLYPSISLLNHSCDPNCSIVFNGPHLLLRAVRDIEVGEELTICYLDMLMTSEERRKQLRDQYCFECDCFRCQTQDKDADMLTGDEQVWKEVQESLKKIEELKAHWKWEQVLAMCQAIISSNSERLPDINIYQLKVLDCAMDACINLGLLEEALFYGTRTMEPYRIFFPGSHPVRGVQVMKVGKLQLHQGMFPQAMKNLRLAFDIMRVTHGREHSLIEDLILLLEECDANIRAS

[3] = molecular target: T3, ZRANB1-zinc finger, RAN-binding domain containing 1 (ZRANB1) (human, UniProt Q9UGI0 1-708)
T3 sequence (looked up): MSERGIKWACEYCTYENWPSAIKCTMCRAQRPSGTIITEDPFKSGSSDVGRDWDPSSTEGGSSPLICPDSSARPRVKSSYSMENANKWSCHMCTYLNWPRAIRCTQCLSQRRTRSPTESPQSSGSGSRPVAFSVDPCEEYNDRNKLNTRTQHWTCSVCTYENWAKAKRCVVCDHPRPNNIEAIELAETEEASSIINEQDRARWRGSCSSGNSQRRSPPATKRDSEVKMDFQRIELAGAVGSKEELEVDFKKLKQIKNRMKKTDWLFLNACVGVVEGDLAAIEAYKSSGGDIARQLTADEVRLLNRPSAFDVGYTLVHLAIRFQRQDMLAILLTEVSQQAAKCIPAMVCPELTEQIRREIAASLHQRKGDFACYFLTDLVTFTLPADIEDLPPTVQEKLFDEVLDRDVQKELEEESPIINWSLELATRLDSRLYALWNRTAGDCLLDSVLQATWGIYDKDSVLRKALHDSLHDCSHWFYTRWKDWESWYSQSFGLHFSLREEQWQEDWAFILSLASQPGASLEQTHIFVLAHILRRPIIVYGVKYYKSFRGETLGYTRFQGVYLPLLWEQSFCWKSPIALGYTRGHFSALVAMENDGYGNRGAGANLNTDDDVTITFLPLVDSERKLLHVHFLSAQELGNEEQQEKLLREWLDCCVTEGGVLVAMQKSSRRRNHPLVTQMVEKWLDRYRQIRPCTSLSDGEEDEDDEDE

[4] = molecular target: T4, BLCAP-bladder cancer associated protein (BLCAP) (human, UniProt P62952 1-87)
T4 sequence (looked up): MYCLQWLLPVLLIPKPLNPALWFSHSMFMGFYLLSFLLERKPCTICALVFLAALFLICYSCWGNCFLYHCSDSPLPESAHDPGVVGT

[5] = molecular target: KRR1-KRR1, small subunit (SSU) processome component, homolog (yeast) (KRR1) (human, UniProt Q13601 1-381, limits assumed)
[6] = molecular target: PSMA8-proteasome (prosome, macropain) subunit, alpha type, 8 (PSMA8) (human, UniProt Q8TAA3 1-256, limits assumed)
[7] = molecular target: C10orf83-chromosome 10 open reading frame 83 (C10orf83) (human, UniProt Q8NDC4 1-146, limits assumed)
[8] = molecular target: T5, HIC2-Hypermethylated in cancer 2 protein (human, UniProt Q96JB3 1-615, limits assumed)
T5 sequence (looked up): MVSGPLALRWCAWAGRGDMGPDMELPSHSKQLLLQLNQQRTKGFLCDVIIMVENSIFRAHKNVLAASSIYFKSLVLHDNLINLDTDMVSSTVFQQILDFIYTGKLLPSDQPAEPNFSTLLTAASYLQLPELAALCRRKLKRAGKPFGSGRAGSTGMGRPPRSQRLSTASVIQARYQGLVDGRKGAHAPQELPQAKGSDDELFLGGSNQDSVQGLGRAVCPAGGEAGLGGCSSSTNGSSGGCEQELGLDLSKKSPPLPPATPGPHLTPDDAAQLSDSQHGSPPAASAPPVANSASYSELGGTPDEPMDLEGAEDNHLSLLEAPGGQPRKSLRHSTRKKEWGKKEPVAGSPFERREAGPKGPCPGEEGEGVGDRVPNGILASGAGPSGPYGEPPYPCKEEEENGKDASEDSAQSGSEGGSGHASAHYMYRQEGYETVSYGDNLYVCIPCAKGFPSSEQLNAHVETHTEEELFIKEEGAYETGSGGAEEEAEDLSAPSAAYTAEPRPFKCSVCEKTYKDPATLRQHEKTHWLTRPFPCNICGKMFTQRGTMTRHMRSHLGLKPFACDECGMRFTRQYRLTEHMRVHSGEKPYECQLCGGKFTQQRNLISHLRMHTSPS

KRR1-KRR1, small subunit (SSU) processome component, homolog (yeast) (KRR1), sequence (Q13601 whole entry): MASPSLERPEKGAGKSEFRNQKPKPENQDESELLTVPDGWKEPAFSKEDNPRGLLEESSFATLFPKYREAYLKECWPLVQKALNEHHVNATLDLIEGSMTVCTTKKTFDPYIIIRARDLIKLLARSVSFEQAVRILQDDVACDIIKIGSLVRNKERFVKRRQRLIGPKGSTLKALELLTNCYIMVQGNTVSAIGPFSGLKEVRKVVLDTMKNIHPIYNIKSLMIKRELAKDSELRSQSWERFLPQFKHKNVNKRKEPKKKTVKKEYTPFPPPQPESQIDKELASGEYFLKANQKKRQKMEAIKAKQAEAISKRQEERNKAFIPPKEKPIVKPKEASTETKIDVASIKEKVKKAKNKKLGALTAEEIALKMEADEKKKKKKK
C10orf83-chromosome 10 open reading frame 83 (C10orf83), sequence (Q8NDC4 whole entry): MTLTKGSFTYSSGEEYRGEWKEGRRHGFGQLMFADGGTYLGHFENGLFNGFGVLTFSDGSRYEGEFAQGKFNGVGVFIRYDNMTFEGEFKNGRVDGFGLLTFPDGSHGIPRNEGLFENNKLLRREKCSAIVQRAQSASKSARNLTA
PSMA8-proteasome (prosome, macropain) subunit, alpha type, 8 (PSMA8), sequence (Q8TAA3 whole entry): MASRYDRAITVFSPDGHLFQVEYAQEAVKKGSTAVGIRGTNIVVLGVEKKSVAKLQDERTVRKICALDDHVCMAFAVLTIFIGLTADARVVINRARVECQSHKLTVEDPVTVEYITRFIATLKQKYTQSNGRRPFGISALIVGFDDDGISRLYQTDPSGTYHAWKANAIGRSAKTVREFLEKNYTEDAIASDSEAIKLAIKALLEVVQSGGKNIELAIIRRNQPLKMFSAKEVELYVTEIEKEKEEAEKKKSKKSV

B1: 3× Flag-3×MBT (designed binder)
chain: EEWSSSQPATGEKKECWSWESYLEEQKAITAPVSLFQDSQAVTHNKNGFKLGMKLEGIDPQHPSMYFILTVAEVCGYRLRLHFDGYSECHDFWVNANSPDIHPAGWFEKTGHKLQPPKGYKEEEFSWSQYLRSTRAQAAPKHLFVSQSHSPPPLGFQVGMKLEAVDRMNPSLVCVASVTDVVDSRFLVHFDNWDDTYDYWCDPSSPYIHPVGWCQKQGKPLTPPQDYPDPDNFCWEKYLEETGASAVPTWAFKVRPPHSFLVNMKLEAVDRRNPALIRVASVEDVEDHRIKIHFDGWSHGYDFWIDADHPDIHPAGWCSKTGHPLQPPLGPREPSSASPGG
notes: also called Flag-tagged 3×MBT; 3xFlag-3xMBT; not shown: made by PreScission cleavage of GST-3× Flag-3×MBT
GST Average SNR [1]: 1.16 | GST Average SNR [2]: 1.3 | GST Average SNR [3]: -0.43 | GST Average SNR [4]: 0.932 | GST Average SNR [5]: 0.566 | GST Average SNR [6]: -0.846 | GST Average SNR [7]: 0.742 | GST Average SNR [8]: 0.588

— patent publication US20140274782A1 (Stanford University, published 2014)
